# Reference: patent publication US20180185504A1 (Regeneron, published 2018)
# T1: human prolactin receptor (PRLR) (human, UniProt P16471 25-622)
# T1 sequence: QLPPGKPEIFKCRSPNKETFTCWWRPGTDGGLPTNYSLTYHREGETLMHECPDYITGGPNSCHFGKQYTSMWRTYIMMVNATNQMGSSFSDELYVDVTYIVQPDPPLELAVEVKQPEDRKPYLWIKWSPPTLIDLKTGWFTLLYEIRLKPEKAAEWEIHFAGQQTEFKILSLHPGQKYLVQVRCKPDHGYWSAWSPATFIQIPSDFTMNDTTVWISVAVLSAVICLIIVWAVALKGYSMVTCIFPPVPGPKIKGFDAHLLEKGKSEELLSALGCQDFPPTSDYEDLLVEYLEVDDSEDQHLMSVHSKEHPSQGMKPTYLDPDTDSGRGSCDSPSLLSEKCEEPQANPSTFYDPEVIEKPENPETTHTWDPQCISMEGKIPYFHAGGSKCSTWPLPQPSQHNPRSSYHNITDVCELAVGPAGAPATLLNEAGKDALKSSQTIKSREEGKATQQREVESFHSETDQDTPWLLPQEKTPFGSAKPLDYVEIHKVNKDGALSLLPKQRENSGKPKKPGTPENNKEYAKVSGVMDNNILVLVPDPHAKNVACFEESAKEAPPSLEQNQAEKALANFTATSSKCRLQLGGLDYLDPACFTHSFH
# B1: H1H6803P-DM1 (antibody, human IgG1, V domains shown)
# VH: EVQLVESGGGVVRPGGSLRLSCAASGFKFDDYGMTWVRHVPGKGLEWVSGINWNGGRTGYTDSVKGRFTISRDNAKNSLYLQMNSLRAEDTALYHCAGARRDAFDIWGQGTMVTVSS
# VL: DIQMTQSPSSLSASIGDRVTITCRASQNIIKYLNWYQQNAGKAPKLLIYTASSLQSGVPSRFSGSGSGTDFTLTISSLQPEDFATYYCQQSSSSPYTFGQGTKLEIK
# modifications: DM1 conjugated through SMCC linker; attachment residues not stated
# B2: H1H6800P-DM1 (antibody, human IgG1, V domains shown)
# VH: EVQLVESGGGLVQPGRSLRLSCAASGFTFDGYAMHWVRQGPGKGLEWVSGISWYSDTLGYADSVKGRFTISRDNAKNSLYLQMNSLRTEDTAFYYCAKISSSGWAFDYWGQGTLVTVSS
# VL: EIVLTQSPGTLSLSPGERATLSCRASHSVSSAYLAWYQQKPGQTPRLLIYGTSSRATGIPDRFSGSGSGTDFTLTISRLEPEDFAVYYCQQYGSSPLFTFGPGTKVDIK
# modifications: DM1 conjugated through SMCC linker; attachment residues not stated
# B3: H1H6793P-DM1 (antibody, human IgG1, V domains shown)
# VH: EVQLVESGGGLVQPGGSLRLSCAASGFSFSIYAMSWFRQAPGKGLEWVSAINGRGDGTHYADSVKGRFTISRDNSKTTLYLQMSSLRAEDTAVYYCAKPVMSTNGFDIWGQGTMVTVSS
# VL: DIQMTQSPSTLSASVGDRVTITCRASQSISSWLAWYQLKPGKAPKLLIYKASNLESGVPSRFSGSGSGTEFTLTISSLQPDDFATYYCQQYNIYWTFGQGTKVEIK
# modifications: DM1 conjugated through SMCC linker; attachment residues not stated
# B4: H1H6959N2-DM1 (antibody, human IgG1, V domains shown)
# VH: EVQLVESGGGLVQPGRSLRLSCAASGFTFDDYAMHWVRQAPGKGLEWVSGISWHSGIIGYADSVKGRFTISRDNAKNSLYLQMNSLRTEDAALYYCAKIGSYFYFDSWGQGTLVTVSS
# VL: EIVLTQSPGTLSLSPGERATLSCRASQSVSSNYLAWYQQKPGQAPRLLIYGASSRATGIPDRFSGSGSGTDFTLTISRLEPEDFAVYYCQQFGSSGYTFGQGTNLEIK
# modifications: DM1 conjugated through SMCC linker; attachment residues not stated
# B5: H1H6975P-mc-VC-PAB-MMD (antibody, human IgG1, V domains shown)
# VH: EVHLVESGGGLVQPGGSLRLSCAASGFTFSSYEMNWVRQTPGKGLEWISHISSRSVIIYYADSVKGRFTISRDNAKNSLFLQMNSLRAEDTAVYFCAGITIFGIPEYWGQGTLVTVSS
# VL: EIVLTQSPATLSLSPGERATLSCRASQSVSSYFAWYQQKPGQAPRLLIYDASSRATGIPTRFSGSGSGTDFTLTISSLEPEDFAVYYCQQRSSWPITFGQGTRLEIK
# modifications: MMD conjugated through mc-VC-PAB linker; attachment residues not stated
# B6: H1H6765P-mc-VC-PAB-MMAE (antibody, human IgG1, V domains shown)
# VH: EVQLVESGGGVVRPGGSLRLSCVGSGFSFDDHGMNWVRQGPGKGLEWVSGFNWNGGSTNYAESVKGRFTISRDNARNSLFLQMNSLRAEDTALYYCVRGRSGWFNDAFDVWGPGTMVTVSS
# VL: EIVLTQSPGTLSLSPGERATLSCRASQTINSNYLAWYRQKPGQTPRLLIYGTSSRATGIPDRFSGSGSGTDFSLTISRLEPEDFAVFYCQQYAGLPTFGPGTKVDIK
# modifications: MMAE conjugated through cleavable mc-vc-PAB linker; attachment residues not stated
# B7: H1H6958N2-mc-VC-PAB-MMAE (antibody, human IgG1, V domains shown)
# VH: QVQLVESGGGVVQPGRSLRLSCGASGFTFRNYGMQWVRQGPGKGLEWVTLISFDGNDKYYADSVKGRFTISRDNSKNTLFLQMNSLRTEDTAVYYCARGGDFDYWGQGTLVTVSS
# VL: DIQMTQSPSSLSASVGDRVTITCRASQDIRKDLGWYQQKPGKAPKRLIYAASSLHSGVPSRFSGSGSGTEFTLTISSLQPEDFATYYCLQHNSYPMYTFGQGTKLEIK
# modifications: MMAE conjugated through cleavable mc-vc-PAB linker; attachment residues not stated
# B8: H1H6958N2-SPDB-DM4 (antibody, human IgG1, V domains shown)
# VH: B7 VH
# VL: B7 VL
# modifications: DM4 conjugated through SPDB linker; attachment residues not stated
# B9: H1H6782P-mc-VC-PAB-MMD (antibody, human IgG1, V domains shown)
# VH: EVQLVESGGGLVQPGRSLRLSCAASGFTFDDYAMHWVRQAPGKGLEWVSGIIWNSGHIGYGDSVKGRFTISRDNAKKSLYLQMNSLRAEDTALYYCARDSGRYQSYFDYWGQGTLVTVSS
# VL: DIQMTQSPSTLSASVGDRVTITCRASHIISSWLAWYQQKPGKAPKVLIFKASSLESGVPSRFSGSGSGTEFTLTISSLQPDDFATYYCQQYNTYSRTFGQGTKVEIK
# modifications: MMD conjugated through mc-VC-PAB linker; attachment residues not stated
# B10: H1H6782P-mc-VC-PAB-MeNHC3-May (antibody, human IgG1, V domains shown)
# VH: B9 VH
# VL: B9 VL
# modifications: MeNHC3-May conjugated through mc-VC-PAB linker; attachment residues not stated
# B11: H1H6953N-mc-VC-PAB-MMAE (antibody, human IgG1, V domains shown)
# VH: EVQLLESGGGLVQPGGTLRLSCAASGFTFSAYAMSWVRQAPGKGLEWVSSINVRAGDTYYADSVKGRFTISRDNSKNTLFLLMNSLRAEDTAAYYCAKARYSSNWGFDFWGQGTLVTVSS
# VL: DIVMTQSPDSLTVSLGARTTINCQSSQTILHSSNNHNYLAWYQQKPGLPPKLLIYWSSTRESGVPDRFSGSGSGTDFTLTISSLQAEDVAIYYCQQYSNTPYTFGQGTKLEIN
# modifications: MMAE conjugated through cleavable mc-vc-PAB linker; attachment residues not stated
# B12: H1H6953N-mc-VC-PAB-MMD (antibody, human IgG1, V domains shown)
# VH: B11 VH
# VL: B11 VL
# modifications: MMD conjugated through mc-VC-PAB linker; attachment residues not stated
# B13: H1H6953N-mc-VC-PAB-MeNHC3-May (antibody, human IgG1, V domains shown)
# VH: B11 VH
# VL: B11 VL
# modifications: MeNHC3-May conjugated through mc-VC-PAB linker; attachment residues not stated
# Biological target: T1, human prolactin receptor (PRLR)
# Assay: cell-based or functional assay
Binder,"% Kill, PC3/PRLR cells","IC50, cell viability, PC3/PRLR cells","% Kill, 293/PRLR cells","IC50, cell viability, 293/PRLR cells"
B1,70%,2.32 nM,–,–
B2,68%,1.37 nM,–,–
B3,65%,3.65 nM,–,–
B4,82%,11.6 nM,95%,4.82 nM

# Biological target: T1, human prolactin receptor (PRLR)
# Assay: cell-based or functional assay
# Remark: another data set of the same source
Binder,"% Kill, MCF7/ATCC cells","% Kill, MCF7/PRLR cells","IC50, cell viability, MCF7/ATCC cells","IC50, cell viability, MCF7/PRLR cells"
B5,50%,90%,150 nM,0.2 nM
B6,40%,90%,150 nM,0.2 nM
B7,50%,90%,150 nM,0.2 nM
B8,80%,90%,25 nM,0.8 nM
B9,50%,90%,200 nM,0.3 nM
B10,50%,80%,250 nM,0.2 nM
B11,40%,85%,150 nM,0.1 nM
B12,50%,90%,300 nM,0.2 nM
B13,60%,80%,150 nM,0.2 nM

# Biological target: T1, human prolactin receptor (PRLR)
# Assay: cell-based or functional assay
# Remark: another data set of the same source
Binder,"% Kill, T47D cells","IC50, cell viability, T47D cells"
B5,90%,3 nM
B6,90%,1 nM
B7,90%,1 nM
B8,100%,1 nM
B9,90%,2 nM
B10,90%,2 nM
B11,80%,1 nM
B12,90%,1 nM
B13,90%,1 nM

# Biological target: T1, human prolactin receptor (PRLR)
# Assay: cell-based or functional assay
# Remark: another data set of the same source
Binder,"% Kill, MCF7/ATCC cells","% Kill, MCF7/PRLR cells","% Kill, PC3/hPRLR cells","IC50, cell viability, MCF7/ATCC cells","IC50, cell viability, MCF7/PRLR cells","IC50, cell viability, PC3/hPRLR cells"
B6,38%,86%,85%,150 nM,0.2 nM,0.4 nM
B7,53%,88%,82%,150 nM,0.2 nM,0.5 nM
B11,42%,85%,80%,150 nM,0.1 nM,0.2 nM

# Biological target: T1, human prolactin receptor (PRLR)
# Assay: cell-based or functional assay
# Remark: another data set of the same source
Binder,"% Kill, MCF7/PRLR cells","% Kill, MCF7 cells","% Kill, T47D cells","IC50, cell viability, MCF7/PRLR cells","IC50, cell viability, MCF7 cells","IC50, cell viability, T47D cells"
B1,84%,60%,77%,0.44 nM,150 nM,8.61 nM
B2,85%,65%,79%,0.4 nM,150 nM,3.2 nM
B3,87%,67%,53%,0.54 nM,125 nM,11.1 nM
B4,80%,82%,71%,0.47 nM,100 nM,48.9 nM
